Test: Pharmacokinetic study of intranasal tissue kallikrein (125I-KLK1 tissue concentrations by gamma counting)
Type: in vivo
Conditions: rat
Protocol: The purpose of this study was to quantify the amount of tissue kallikrein (KLK1) reaching the central nervous system and peripheral tissues after intranasal administration to anesthetized rats. At 30 min after KLK1 administration, animals were transcardially perfused with ice-cold saline followed by paraformaldehyde fixative and tissues were dissected. The amount of radiolabeled KLK1 in each tissue sample was quantified by gamma counting and tissue concentrations were calculated using tissue weight and gamma counting of standards of the dosing solutions
Adult male Sprague Dawley rats (n=10, mean 335.4 g±4.57 g SE) were used for this study. Animals were group housed in the Regions Hospital Animal Care Facility with free access to food and water. Animals were kept on a 12 h light cycle. All experimental procedures were approved by the Animal Care and Use Committee at Regions Hospital under IACUC protocol number 08-022.
Tissue kallikrein was sent to Perkin-Elmer for ^125I-labelling (Quote NEX-084, lot C1541583). Non-labeled KLK1 from Sigma (cat#K3627-1KU, lot 018K1441) was also used. Non-labeled KLK1 was dissolved in 1×PBS (10×PBS, Sigma, cat #P5493, lot 027K8405 diluted in sterile water). The average dose was 48.1 μL, 75 μCi, and 2.6 mg.
• a. Prior to anesthesia, each rat was weighed. • b. An anesthesia cocktail was prepared and full, half, and quarter anesthesia doses were calculated according to the animal's weight with a full dose containing 30 mg/kg ketamine, 6 mg/kg xylazine, and 1 mg/kg acepromazine. • c. A 1-cc syringe fitted with a 25 G or 27 G, ½ inch needle was assembled and a full dose was drawn into the syringe for injection. • d. Rats were restrained in a towel as follows. Rats were placed ventral side down in the middle of a hand towel. The towel was then wrapped around the head and shoulders to restrain. Wrapped animals remained ventral side down while the left hind leg was located. • e. The left hind leg was drawn to the side and the needle was inserted just beneath the skin (subcutaneous) above the thigh. After ensuring that the needle was placed subcutaneously (and not intramuscularly), full doses were injected. Rats were placed in holding cages and the injection time noted. Animals should be under within 5 min. • f. Anesthesia was monitored throughout the procedures by assessing reflexes using pinching of the hind paw or tail. If a reflex was present, a half or quarter dose booster was administered as necessary. • g. During drug administration, animals received a half dose booster roughly 20-25 min after initial dose. Intranasal Delivery of ^125I-KLK1 • a. Anesthetized rats were placed on their backs on a heating pad in a metal surgical tray. The heating pad was connected to a thermostat and was automatically regulated to maintain a 37° C. temperature based on continuous measurement from a rectal probe. • b. A 2″×2″ gauze pad was rolled tightly into a pillow, taped together, and under the neck to maintain a correct neck position horizontal with the counter. • c. A lead impregnated shield was placed between the surgical tray and the experimenter for protection against radiation. The dose solution, pipette, pipette tips, and waste receptacle were arranged behind the shield for easy access. • d. A 6 μL drop was loaded into the pipette behind the shield. • e. A cotton swab covered in parafilm was used to occlude one naris completely (the flat part of the swab was pushed gently against the naris to prevent airflow), while the 6 μL drop was expelled slowly from the pipette (held at a 45° angle from the rat's midline), forming a drop on the pipette tip. The drop was lowered onto the open naris to be inhaled. • f. After two minutes, the alternate naris was occluded and a 6 μL drop was administered in the same fashion. • g. A drop was administered as described above every two minutes to alternating nares until a total of 8 drops was delivered (4 to each naris) over 14 min. • h. […]

[1] = 30 min. end point, Avg, outliers removed

B1: tissue kallikrein: serine protease that cleaves kininogen into kallidin; polypeptide SEQ ID NO:1 (Sus scrofa kallikrein 1), KLK1 from Sigma (protein, listed as Sus scrofa)
chain: MWSLVMRLALSLAGTGAAPPIQSRIIGGRECEKDSHPWQVAIYHYSSFQCGGVLVDPKWVLTAAHCKNDNYQVWLGRHNLFENEVTAQFFGVTADFPHPGFNLSLLKNHTKADGKDYSHDLMLLRLQSPAKITDAVKVLELPTQEPELGSTCQASGWGSIEPGPDDFEFPDEIQCVELTLLQNTFCADAHPDKVTESMLCAGYLPGGKDTCMGDSGGPLICNGMWQGITSWGHTPCGSANKPSIYTKLIFYLDWINDTITENP
modifications: 125I label in one form
- reaching target regions (frontal cortex, temporal cortex, hippocampus, cerebral blood vessel walls, cervical nodes) (30 min): effectively reached target regions
- concentration in Amygdala [1]: 16.2 nM
- concentration in Anterior Olfactory Nucleus [1]: 26.8 nM
- concentration in Anterior Trigeminal Nerve [1]: 109.1 nM
- concentration in Axillary Nodes (2) [1]: 42.3 nM
- concentration in Blood Sample [1]: 268.4 nM
- concentration in Carotid Artery [1]: 113.4 nM
- concentration in Cerebellum [1]: 10.9 nM
- concentration in Cervical Nodes (2) [1]: 122.3 nM
- concentration in Circle of Willis & Basilar Artery [1]: 103.3 nM
- concentration in Dorsal Dura [1]: 132.9 nM
- concentration in Esophagus [1]: 85.2 nM
- concentration in Extra Cortex [1]: 13.0 nM
- concentration in Extra Slice #1 [1]: 23.6 nM
- concentration in Extra Slice #2 [1]: 16.7 nM
- concentration in Extra Slice #3 [1]: 13.9 nM
- concentration in Extra Slice #4 [1]: 12.0 nM
- concentration in Extra Slice #5 [1]: 11.8 nM
- concentration in Extra Slice #6 [1]: 11.3 nM
- concentration in Frontal Cortex [1]: 23.9 nM
- concentration in Heart [1]: 22.6 nM
- concentration in Hippocampus [1]: 10.7 nM
- concentration in Hypothalamus [1]: 22.2 nM
- concentration in Kidney (L, tip) [1]: 134.8 nM
- concentration in Liver (R, superficial lobe) [1]: 25.7 nM
- concentration in Lower Cervical Spinal Cord [1]: 7.1 nM
- concentration in Lumbar Spinal Cord [1]: 4.9 nM
- concentration in Lung (R, top lobe) [1]: 37.2 nM
- concentration in Medulla [1]: 14.9 nM
- concentration in Midbrain [1]: 12.5 nM
- concentration in Muscle (R, deltoid) [1]: 21.4 nM
- concentration in Occipital Cortex [1]: 12.8 nM
- concentration in Olfactory Bulbs [1]: 107.1 nM
- concentration in Olfactory Epithelium [1]: 24,762.6 nM
- concentration in Optic Chiasm [1]: 29.4 nM
- concentration in Parietal Cortex [1]: 12.1 nM
- concentration in Pituitary [1]: 60.1 nM
- concentration in Pons [1]: 14.4 nM
- concentration in Posterior Trigeminal Nerve [1]: 51.8 nM
- concentration in Renal artery (L) [1]: 58.1 nM
- concentration in Respiratory Epithelium [1]: 75,970.0 nM
- concentration in Septal Nucleus [1]: 12.1 nM
- concentration in Spinal Dura [1]: 26.6 nM
- concentration in Spleen (tip) [1]: 72.6 nM
- concentration in Striatum [1]: 9.8 nM
- concentration in Superficial Nodes (2) [1]: 63.1 nM
- concentration in Temporal Cortex [1]: 12.4 nM
- concentration in Thalamus [1]: 10.3 nM
- concentration in Thoracic Spinal Cord [1]: 5.2 nM
- concentration in Thyroid [1]: 1970.6 nM
- concentration in Trachea [1]: 77.7 nM
- concentration in Upper Cervical Spinal Cord [1]: 23.4 nM
- concentration in Urine [1]: 130.7 nM
